Data on one molecule can be found in article PMC7164261.

In experiment [1] the target is T1, Flag-TMIGD1/WT (human TMIGD1, AA 30-262) stably expressed in MDCKII-TetOFF cells (human) (UniProt Q6UXZ0).
T1 sequence: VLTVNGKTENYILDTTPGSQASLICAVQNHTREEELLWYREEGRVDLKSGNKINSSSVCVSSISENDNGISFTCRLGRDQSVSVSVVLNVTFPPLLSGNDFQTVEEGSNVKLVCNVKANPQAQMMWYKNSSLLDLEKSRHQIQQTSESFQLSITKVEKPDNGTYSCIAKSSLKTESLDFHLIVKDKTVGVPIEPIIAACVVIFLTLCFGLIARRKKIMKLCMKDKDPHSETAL

Experiment [2] deals with T2, Flag-ΔD1-TMIGD1 (human TMIGD1 lacking the membrane-distal Ig-like domain, AA 115-262) (human) (UniProt Q6UXZ0).
T2 sequence: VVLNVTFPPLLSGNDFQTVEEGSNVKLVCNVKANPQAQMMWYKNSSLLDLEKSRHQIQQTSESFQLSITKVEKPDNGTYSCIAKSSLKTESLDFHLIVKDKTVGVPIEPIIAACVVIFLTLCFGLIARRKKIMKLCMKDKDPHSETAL

B1: Myc-hSYNJ2BP (human SYNJ2BP full length, AA 2-145) (natural protein)
chain: NGRVDYLVTEEEINLTRGPSGLGFNIVGGTDQQYVSNDSGIYVSRIKENGAAALDGRLQEGDKILSVNGQDLKNLLHQDAVDLFRNAGYAVSLRVQHRLQVQNGPIGHRGEGDPSGIPIFMVLVPVFALTMVAAWAFMRYRQQL
In experiment [1], B1 gave a recruitment of TMIGD1/WT from cytoplasmic compartments to mitochondria in Myc-SYNJ2BP-expressing MDCKII-TetOFF cells (immunofluorescence microscopy, fraction of cells) of 75%. The molecule also displayed a recruitment of ΔD1-TMIGD1 from cell-cell contacts to mitochondria in Myc-SYNJ2BP-expressing MDCKII-TetOFF cells (immunofluorescence microscopy, fraction of cells) in experiment [2] of over 90%.
